Results on three sequences are retold here after US5693502.

Data set [1] has as its target Tth DNA polymerase (rTth) (Thermus thermophilus) (UniProt P52028). Kind of data set: filter.
For data set [2], the target named is Taq DNA polymerase (rTaq) (Thermus aquaticus) (UniProt P19821). Kind of data set: FP_none.
The target is the same in data set [3]. Kind of data set: filter. The following applies: room temperature.

By Kd is commonly meant a measure of binding affinity in units of concentration. Read a low Kd as a tighter complex.

Chain of Taq DNA polymerase (rTaq) (Thermus aquaticus) (P19821 whole entry): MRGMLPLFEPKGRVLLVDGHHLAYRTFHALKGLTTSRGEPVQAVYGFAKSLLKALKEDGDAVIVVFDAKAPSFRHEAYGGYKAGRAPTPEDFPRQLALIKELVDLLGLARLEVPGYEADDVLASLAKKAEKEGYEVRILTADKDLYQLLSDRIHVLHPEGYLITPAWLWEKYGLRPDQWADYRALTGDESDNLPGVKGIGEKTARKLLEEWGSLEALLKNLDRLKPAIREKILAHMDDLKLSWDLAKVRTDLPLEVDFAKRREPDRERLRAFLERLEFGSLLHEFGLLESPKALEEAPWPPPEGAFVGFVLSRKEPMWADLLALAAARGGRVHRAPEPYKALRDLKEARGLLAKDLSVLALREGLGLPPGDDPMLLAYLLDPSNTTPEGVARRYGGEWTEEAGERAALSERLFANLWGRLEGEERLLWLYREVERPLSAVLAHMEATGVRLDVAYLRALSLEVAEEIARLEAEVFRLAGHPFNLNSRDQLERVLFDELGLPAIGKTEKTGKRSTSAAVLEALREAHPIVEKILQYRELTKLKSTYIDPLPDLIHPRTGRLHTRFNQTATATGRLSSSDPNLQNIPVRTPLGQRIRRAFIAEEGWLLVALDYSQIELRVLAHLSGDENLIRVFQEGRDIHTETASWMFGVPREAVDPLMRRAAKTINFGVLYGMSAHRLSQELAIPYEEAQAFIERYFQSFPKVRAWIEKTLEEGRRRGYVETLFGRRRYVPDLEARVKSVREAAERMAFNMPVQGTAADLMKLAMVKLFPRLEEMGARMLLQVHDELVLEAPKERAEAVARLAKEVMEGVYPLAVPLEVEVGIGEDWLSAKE
Chain of Tth DNA polymerase (rTth) (Thermus thermophilus) (P52028 whole entry): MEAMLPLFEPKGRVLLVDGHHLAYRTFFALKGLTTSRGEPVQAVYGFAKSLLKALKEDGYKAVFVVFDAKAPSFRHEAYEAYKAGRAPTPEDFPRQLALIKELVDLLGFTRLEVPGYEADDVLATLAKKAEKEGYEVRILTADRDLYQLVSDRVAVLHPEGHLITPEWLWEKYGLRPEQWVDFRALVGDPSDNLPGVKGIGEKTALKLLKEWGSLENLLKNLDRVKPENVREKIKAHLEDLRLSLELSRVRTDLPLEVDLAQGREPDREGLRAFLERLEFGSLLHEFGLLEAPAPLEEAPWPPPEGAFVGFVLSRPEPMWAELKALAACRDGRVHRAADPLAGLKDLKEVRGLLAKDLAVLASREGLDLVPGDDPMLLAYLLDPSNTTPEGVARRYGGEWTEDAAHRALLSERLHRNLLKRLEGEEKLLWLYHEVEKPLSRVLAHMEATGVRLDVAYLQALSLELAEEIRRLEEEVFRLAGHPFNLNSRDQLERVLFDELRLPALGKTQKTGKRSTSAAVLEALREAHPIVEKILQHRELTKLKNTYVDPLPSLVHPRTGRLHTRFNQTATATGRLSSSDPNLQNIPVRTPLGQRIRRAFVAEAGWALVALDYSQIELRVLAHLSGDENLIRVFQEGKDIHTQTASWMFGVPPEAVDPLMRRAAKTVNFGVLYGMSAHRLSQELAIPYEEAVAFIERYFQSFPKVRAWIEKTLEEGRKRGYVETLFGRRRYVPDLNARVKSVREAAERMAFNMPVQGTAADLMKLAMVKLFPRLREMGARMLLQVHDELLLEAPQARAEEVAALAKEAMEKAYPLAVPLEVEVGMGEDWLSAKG

As for “TTCTCGGTTGGTCTCTGGCGGAGCNNNNNNNNNNNNNNNNNNNNNNNNNNNNNNTCTTGTGTATGATTCGCTTTTCCC [Taq-enriched ssDNA pool (round 12)]”, the equilibrium dissociation constant (Kd) in data set [1] (cross binding of Taq-selected pool, room temperature) was found to be 0.2 nM; in data set [2] it was 3.5 nM.
Consider “TTCTCGGTTGGTCTCTGGCGGAGCNNNNNNNNNNNNNNNNNNNNNNNNNNNNNNTCTTGTGTATGATTCGCTTTTCCC [unselected random 30N ssDNA pool]”, for which the dissociation constant Kd in data set [3] (unselected pool, 10 mM Tris-HCl pH 8.3, 50 mM KCl, 2.5 mM MgCl2, tRNA, 0.01% hSA) is greater than 50 nM; in data set [1] (unselected pool, Bicine-KOH pH 8.3, 90 mM KCl, 3.5 mM Mn(OAc)2, room temperature), 70 nM.
Take “TTCTCGGTTGGTCTCTGGCGGAGCNNNNNNNNNNNNNNNNNNNNNNNNNNNNNNTCTTGTGTATGATTCGCTTTTCCC [Tth-enriched ssDNA pool (round 10)]”: the Kd amounted to 0.3 nM in data set [3] (cross binding of Tth-selected pool, saturates at about 50%, about half of pool not interacting) and 5 nM in data set [1] (50 mM Bicine-KOH pH 8.3, 90 mM KCl, 3.5 mM Mn(OAc)2, tRNA, 0.01% hSA, room temperature).
